Measured values from patent US6358732.

Tested on: CDF (CDE-binding factor)
Test: cell_activity
Conditions: transient transfection NIH3T3, luciferase; indirect

With cdc25C promoter CDE-CHR region the activity (fold growing/G0) was 17.5.
